Experiments:
[1] = target: T1, human DR4 (Death Receptor 4), cell surface expressed on human tumor cell lines (human, UniProt O00220 24-468); assay: flow cytometry, MDA-MB-231 cells, N = 1
T1 construct: also called TNFRSF10A; TRAIL-R1
T1 sequence: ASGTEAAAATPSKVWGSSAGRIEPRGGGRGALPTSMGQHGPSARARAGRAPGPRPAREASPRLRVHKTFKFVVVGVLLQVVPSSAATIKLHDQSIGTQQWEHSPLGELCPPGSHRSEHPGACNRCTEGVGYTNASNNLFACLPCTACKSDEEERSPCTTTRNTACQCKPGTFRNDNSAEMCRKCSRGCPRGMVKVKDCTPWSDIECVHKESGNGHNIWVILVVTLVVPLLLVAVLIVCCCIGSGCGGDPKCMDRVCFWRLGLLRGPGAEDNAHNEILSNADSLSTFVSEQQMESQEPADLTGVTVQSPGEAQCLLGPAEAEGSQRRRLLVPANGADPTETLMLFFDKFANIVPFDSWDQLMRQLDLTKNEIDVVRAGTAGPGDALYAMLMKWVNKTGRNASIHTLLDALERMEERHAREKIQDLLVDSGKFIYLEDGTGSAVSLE

[2] = target: T2, human FAPα (Fibroblast activation protein alpha), cell surface expressed (human, UniProt Q12884 1-760); assay: flow cytometry, Expi293F cells expressing human FAPα, average ± SEM
T2 construct: Endogenous on human lung fibroblasts and CAFs
T2 sequence: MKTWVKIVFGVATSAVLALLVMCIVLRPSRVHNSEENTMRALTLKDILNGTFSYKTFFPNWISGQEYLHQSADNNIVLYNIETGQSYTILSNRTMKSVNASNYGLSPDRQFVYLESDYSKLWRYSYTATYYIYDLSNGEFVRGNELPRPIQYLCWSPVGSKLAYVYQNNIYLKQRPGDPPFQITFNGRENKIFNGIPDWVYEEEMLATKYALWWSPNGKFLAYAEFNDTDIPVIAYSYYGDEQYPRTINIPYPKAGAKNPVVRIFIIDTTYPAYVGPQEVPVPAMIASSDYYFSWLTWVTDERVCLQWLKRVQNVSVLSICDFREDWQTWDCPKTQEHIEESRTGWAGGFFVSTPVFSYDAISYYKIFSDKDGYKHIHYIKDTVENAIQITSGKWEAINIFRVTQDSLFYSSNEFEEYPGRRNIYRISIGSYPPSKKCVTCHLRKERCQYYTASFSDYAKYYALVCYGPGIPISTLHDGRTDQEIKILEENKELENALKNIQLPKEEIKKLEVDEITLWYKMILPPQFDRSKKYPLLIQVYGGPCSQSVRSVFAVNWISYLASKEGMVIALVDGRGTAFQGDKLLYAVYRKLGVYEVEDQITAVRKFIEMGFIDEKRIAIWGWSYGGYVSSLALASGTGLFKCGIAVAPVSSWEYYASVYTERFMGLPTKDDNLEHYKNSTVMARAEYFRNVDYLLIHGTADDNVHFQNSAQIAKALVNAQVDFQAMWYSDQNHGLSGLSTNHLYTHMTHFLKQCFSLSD
Method: (§1) Binding of BisG1-FAPα-FERL/DR4-FERR, BisG1-FAPα-FEAL/b12-FEAR and IgG1-FAPα-FERL to FAPα of species commonly used for nonclinical toxicology studies was assessed by flow cytometry using Expi293F cells transiently expressing FAPα from different animal species. IgG1-b12 was included as negative control.
(§2) Expi293F cells expressing recombinant FAPα from various species (human, cynomolgus monkey, dog, pig, rat or mouse) were seeded (20,000 cells/well) in 96-Well round bottom plates (Greiner Bio-one, Cat #650101). Antibody dilutions were prepared using FACS buffer, consisting of PBS (Capricorn Scientific, Cat #PBS-10XA, diluted to 1×PBS in distilled water)+1% BSA (Roche, Cat #10735086001)+0.02% Sodium Azide (Bio-World, Cat #41920044-3). Plates were centrifuged, supernatant was removed, and cells were resuspended in 100 μL of antibody dilutions (concentration range 30-0.00017 μg/mL with three-fold serial dilutions using FACS buffer) of BisG1-FAPα-FERL/DR4-FERR, BisG1-FAPα-FEAL/b12-FEAR, IgG1-FAPα-FERL and IgG1-b12 and incubated for 30 min at 4° C. […] After 30 min incubation at 4° C., cells were washed with FACS buffer and resuspended in FACS buffer supplemented with TO-PRO-3 Iodide viability marker (Invitrogen, Cat #T3605, diluted 1:4,000). Antibody binding to viable cells (gMFI of PE on TO-PRO-3 negative cells) was analyzed by flow cytometry on a FACS Celesta and FACS_Diva software (first two experiments) or iQue® 3 and FlowJo software (last experiment). gMFI was determined and visualized using GraphPad Prism. Binding curves were analyzed using nonlinear regression analysis. The concentration (pg/mL) at which 50% of the maximal effect was observed (EC₅₀) was derived from the fitted curves.

[3] = target: T3, cynomolgus monkey FAPα on Expi293F cells (cynomolgus monkey (Macaca fascicularis), UniProt Q12884 1-760 (human entry)); assay: flow cytometry, Expi293F cells expressing cynomolgus monkey FAPα, n = 1
T3 sequence: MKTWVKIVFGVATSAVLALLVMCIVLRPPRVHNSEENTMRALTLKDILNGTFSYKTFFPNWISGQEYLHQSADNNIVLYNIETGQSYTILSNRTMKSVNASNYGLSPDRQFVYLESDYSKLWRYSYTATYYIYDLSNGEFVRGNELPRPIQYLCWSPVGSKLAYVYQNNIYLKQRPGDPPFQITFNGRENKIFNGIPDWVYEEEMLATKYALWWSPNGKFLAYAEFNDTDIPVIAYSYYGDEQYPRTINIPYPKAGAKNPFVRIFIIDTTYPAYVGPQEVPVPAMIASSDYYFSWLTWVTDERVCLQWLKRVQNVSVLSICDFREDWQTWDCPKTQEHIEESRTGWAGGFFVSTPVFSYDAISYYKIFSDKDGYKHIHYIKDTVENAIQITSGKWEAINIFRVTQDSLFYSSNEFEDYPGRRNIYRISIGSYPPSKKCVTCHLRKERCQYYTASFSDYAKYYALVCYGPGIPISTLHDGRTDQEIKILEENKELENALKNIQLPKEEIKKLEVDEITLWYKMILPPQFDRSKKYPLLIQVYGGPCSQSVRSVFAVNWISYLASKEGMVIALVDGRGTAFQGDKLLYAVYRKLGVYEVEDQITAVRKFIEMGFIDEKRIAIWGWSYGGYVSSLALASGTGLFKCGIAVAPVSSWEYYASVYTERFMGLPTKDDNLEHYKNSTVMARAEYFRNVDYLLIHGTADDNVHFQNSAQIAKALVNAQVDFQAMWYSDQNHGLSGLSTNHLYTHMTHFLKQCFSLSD
Method: as §1, §2

[4] = target: T2, human FAPα (Fibroblast activation …); assay: flow cytometry, Expi293F cells expressing human FAPα, n = 3
Method: as §1, §2

B1: IgG1-DR4-FERR (antibody, V domains shown)
VH: QVQLQESGPGLVKPSGTLSLTCAVSGGSISSYSWWSWIRQPPGKGLEWIGELYHSGSTNYNPSLKSRVTISVDKSKNQFSLKLRSVTAADTAVYYCVRGVATIDYWGQGTLVTVSS
VL: QSALTQPPSASGSPGQSVTISCTGTSSDVGGYNFVSWYQQDPGKAPKLLIYEVTKRPSGVPDRFSGSKSGNTASLTVSGLQAEDEADYYCSSYAGSNNVMFGGGTKLTVLG
notes: Bivalent monoclonal IgG1 lambda
- EC50 [1]: 0.24 µg/mL

B2: BisG1-FAPα-FEAL/b12-FEAR (bispecific antibody, human IgG1, kappa)
heavy 1: EVQLLESGGGLVQPGGSPRLSCEASGFTFSSYALSWVRQAPGKGLEWVSAISGSGGGRYYADSVKGRFTISRDNSKNTLFLQMNSLRAEDTAVYYCAKEGYSSSGTYWDHWGQGTLVTVSSASTKGPSVFPLAPSSKSTSGGTAALGCLVKDYFPEPVTVSWNSGALTSGVHTFPAVLQSSGLYSLSSVVTVPSSSLGTQTYICNVNHKPSNTKVDKRVEPKSCDKTHTCPPCPAPEFEGGPSVFLFPPKPKDTLMISRTPEVTCVVVAVSHEDPEVKFNWYVDGVEVHNAKTKPREEQYNSTYRVVSVLTVLHQDWLNGKEYKCKVSNKALPAPIEKTISKAKGQPREPQVYTLPPSREEMTKNQVSLTCLVKGFYPSDIAVEWESNGQPENNYKTTPPVLDSDGSFLLYSKLTVDKSRWQQGNVFSCSVMHEALHNHYTQKSLSLSPG
light 1: AIQMTQSPSSVSASVGDRVTITCRASQGVSSWLAWYQQKPGRAPKLLIYVASTLQSGVPSRFSGSGSGTDFTLTINSLQPEDFATYYCQQANSFPPTFGQGTRLEMKRTVAAPSVFIFPPSDEQLKSGTASVVCLLNNFYPREAKVQWKVDNALQSGNSQESVTEQDSKDSTYSLSSTLTLSKADYEKHKVYACEVTHQGLSSPVTKSFNRGEC
heavy 2: QVQLVQSGAEVKKPGASVKVSCQASGYRFSNFVIHWVRQAPGQRFEWMGWINPYNGNKEFSAKFQDRVTFTADTSANTAYMELRSLRSADTAVYYCARVGPYSWDDSPQDNYYMDVWGKGTTVIVSSASTKGPSVFPLAPSSKSTSGGTAALGCLVKDYFPEPVTVSWNSGALTSGVHTFPAVLQSSGLYSLSSVVTVPSSSLGTQTYICNVNHKPSNTKVDKRVEPKSCDKTHTCPPCPAPEFEGGPSVFLFPPKPKDTLMISRTPEVTCVVVAVSHEDPEVKFNWYVDGVEVHNAKTKPREEQYNSTYRVVSVLTVLHQDWLNGKEYKCKVSNKALPAPIEKTISKAKGQPREPQVYTLPPSREEMTKNQVSLTCLVKGFYPSDIAVEWESNGQPENNYKTTPPVLDSDGSFFLYSRLTVDKSRWQQGNVFSCSVMHEALHNHYTQKSLSLSPG
light 2: EIVLTQSPGTLSLSPGERATFSCRSSHSIRSRRVAWYQHKPGQAPRLVIHGVSNRASGISDRFSGSGSGTDFTLTITRVEPEDFALYYCQVYGASSYTFGQGTKLERKRTVAAPSVFIFPPSDEQLKSGTASVVCLLNNFYPREAKVQWKVDNALQSGNSQESVTEQDSKDSTYSLSSTLTLSKADYEKHKVYACEVTHQGLSSPVTKSFNRGEC
notes: Fab-arm exchange of IgG1-FAPα-FEAL and IgG1-b12-FEAR
- EC50 [2]: 0.3 µg/mL
- EC50 [3]: 0.05 µg/mL
- EC50 [4]: 0.61 µg/mL

B3: BisG1-b12-FERL/DR4-FERR (bispecific antibody, human IgG1, kappa, lambda)
heavy 1: QVQLVQSGAEVKKPGASVKVSCQASGYRFSNFVIHWVRQAPGQRFEWMGWINPYNGNKEFSAKFQDRVTFTADTSANTAYMELRSLRSADTAVYYCARVGPYSWDDSPQDNYYMDVWGKGTTVIVSSASTKGPSVFPLAPSSKSTSGGTAALGCLVKDYFPEPVTVSWNSGALTSGVHTFPAVLQSSGLYSLSSVVTVPSSSLGTQTYICNVNHKPSNTKVDKRVEPKSCDKTHTCPPCPAPEFERGPSVFLFPPKPKDTLMISRTPEVTCVVVDVSHEDPEVKFNWYVDGVEVHNAKTKPREEQYNSTYRVVSVLTVLHQDWLNGKEYKCKVSNKALPAPIEKTISKAKGQPREPQVYTLPPSREEMTKNQVSLTCLVKGFYPSDIAVEWESNGQPENNYKTTPPVLDSDGSFLLYSKLTVDKSRWQQGNVFSCSVMHEALHNHYTQKSLSLSPG
light 1: EIVLTQSPGTLSLSPGERATFSCRSSHSIRSRRVAWYQHKPGQAPRLVIHGVSNRASGISDRFSGSGSGTDFTLTITRVEPEDFALYYCQVYGASSYTFGQGTKLERKRTVAAPSVFIFPPSDEQLKSGTASVVCLLNNFYPREAKVQWKVDNALQSGNSQESVTEQDSKDSTYSLSSTLTLSKADYEKHKVYACEVTHQGLSSPVTKSFNRGEC
heavy 2: QVQLQESGPGLVKPSGTLSLTCAVSGGSISSYSWWSWIRQPPGKGLEWIGELYHSGSTNYNPSLKSRVTISVDKSKNQFSLKLRSVTAADTAVYYCVRGVATIDYWGQGTLVTVSSASTKGPSVFPLAPSSKSTSGGTAALGCLVKDYFPEPVTVSWNSGALTSGVHTFPAVLQSSGLYSLSSVVTVPSSSLGTQTYICNVNHKPSNTKVDKRVEPKSCDKTHTCPPCPAPEFERGPSVFLFPPKPKDTLMISRTPEVTCVVVDVSHEDPEVKFNWYVDGVEVHNAKTKPREEQYNSTYRVVSVLTVLHQDWLNGKEYKCKVSNKALPAPIEKTISKAKGQPREPQVYTLPPSREEMTKNQVSLTCLVKGFYPSDIAVEWESNGQPENNYKTTPPVLDSDGSFFLYSRLTVDKSRWQQGNVFSCSVMHEALHNHYTQKSLSLSPG
light 2: QSALTQPPSASGSPGQSVTISCTGTSSDVGGYNFVSWYQQDPGKAPKLLIYEVTKRPSGVPDRFSGSKSGNTASLTVSGLQAEDEADYYCSSYAGSNNVMFGGGTKLTVLGQPKAAPSVTLFPPSSEELQANKATLVCLISDFYPGAVTVAWKADSSPVKAGVETTTPSKQSNNKYAASSYLSLTPEQWKSHRSYSCQVTHEGSTVEKTVAPTECS
notes: Fab-arm exchange of IgG1-b12-FERL and IgG1-DR4-FERR; also called bsIgG1-ctrl-FERLxDR4-FERR
- EC50 [1]: 0.39 µg/mL
- Max MFI (at 90 µg/mL) [1]: 7840 MFI
